Experimental data published in patent US12077763B2, “RNA-based control of powdery mildew” (Greenlight Biosciences, Inc., priority 2021, dated 2024).

B1: GS3930 (nucleic acid)
sense: CUAACGAGUGAUCGAAGCCCAUCUGAAAGAUUUUGAGUUAUGCUUUUACCAACUAUUACAGUAUCUGAGCUCAGUCGCGAGAGUAAAUCCCCGACUCGAUUGGCGUCAAAGAACUCGGCAUCUUGUACAAAUGUCCUUCGAAAUAAUUUUGAUCGGAGUCUUGAAAUUACUCUUUCUCCAACUAUUCUCAGAAUUAAUAUCCGUCCAUAAUUAGCUACAGCACCUAUUGAUAGUAUAAGCCCAAGAGCCCCGAAAAAUUGUUGAUUAUUAAGUUCAAAAAGUGUGUUUCCUUCUGAGUUUUUGGUUGCAAGGUCUAAUAUUUUACCGAUUGAAAAAGGAAUUGCCAUUGAUAUGGAUGAAGAUACUAAUAAAAAGAAAAAUGCCAAACUGAGC
antisense: GCUCAGUUUGGCAUUUUUCUUUUUAUUAGUAUCUUCAUCCAUAUCAAUGGCAAUUCCUUUUUCAAUCGGUAAAAUAUUAGACCUUGCAACCAAAAACUCAGAAGGAAACACACUUUUUGAACUUAAUAAUCAACAAUUUUUCGGGGCUCUUGGGCUUAUACUAUCAAUAGGUGCUGUAGCUAAUUAUGGACGGAUAUUAAUUCUGAGAAUAGUUGGAGAAAGAGUAAUUUCAAGACUCCGAUCAAAAUUAUUUCGAAGGACAUUUGUACAAGAUGCCGAGUUCUUUGACGCCAAUCGAGUCGGGGAUUUACUCUCGCGACUGAGCUCAGAUACUGUAAUAGUUGGUAAAAGCAUAACUCAAAAUCUUUCAGAUGGGCUUCGAUCACUCGUUAG
B2: GS3934 (nucleic acid)
sense: UCUUCUUCAGUGGUAUGUGCAAGAGAUUGACGUCUAGAUGAACGUGUUGAUGGUGCAGUUACUACAGCAGUAGCUUCAACCGAUUUUCGACUCACUUUUCGCUUGUUUGAAACAGACGAAACUAAAGAAUUUGUGGAACUAGAUUUAGGUUUACGAGUAGUGGACCGUCCCUUACUUGUAUAGACUCUCUUUUUAAGUGUAGAAUCAUUCAAUGGCUGUAAAAAUGAAACUAAAUCUCCACAAAUAGUAGUAGGUGCAUCUGCUGAUAAUGCUUCAGGUAAAUCUAAUCUAGAUCCAAUUUCUGAUGUACUAAGUGAUAUAUUUGAAGAGGUAAUAUUACUUUGUAUUUCAGGUGUCUUUGAGGUCAUCUUUGAUGAAAUUACCAUUAGUUUUU
antisense: AAAAACUAAUGGUAAUUUCAUCAAAGAUGACCUCAAAGACACCUGAAAUACAAAGUAAUAUUACCUCUUCAAAUAUAUCACUUAGUACAUCAGAAAUUGGAUCUAGAUUAGAUUUACCUGAAGCAUUAUCAGCAGAUGCACCUACUACUAUUUGUGGAGAUUUAGUUUCAUUUUUACAGCCAUUGAAUGAUUCUACACUUAAAAAGAGAGUCUAUACAAGUAAGGGACGGUCCACUACUCGUAAACCUAAAUCUAGUUCCACAAAUUCUUUAGUUUCGUCUGUUUCAAACAAGCGAAAAGUGAGUCGAAAAUCGGUUGAAGCUACUGCUGUAGUAACUGCACCAUCAACACGUUCAUCUAGACGUCAAUCUCUUGCACAUACCACUGAAGAAGA
B3: GS3931 (nucleic acid)
sense: AUCAAUUUUUCAUUCUCCCUAAUAGAUUUGAUAUCCCGUUCUUUGAGAUAACUUAAUUCCUCUUUUAUGUCUUUUAGCUUUUUUUCUGCAGUCGCAAUUAGAGUCUCUUUUUCAGCAAUUUGAUCUUGAAGCUCAUUUUCUCUUUUUAAAAACUCUUCACGAUCAUCUUUUUCUAAUGCAAUUGGCGUAGAUGAGCGAUCUAAUAACGUUGAAGCUUCCGAUCUAGAUUCUACCUGCAGCCUAGAAGGAGUUGCAGGUCUUGGUGUUUUUAUUUUAGAAAGAUUAGCAGUAUCUAAAGGUGGUACCCAUUUUUCUUUAGGCACACUAUCUCCAGACCUCCACUGCUGAACUUCUGCAUCAAGUGUCUGUACAUAUUGUUCAAAUGUAGUAA
antisense: UUACUACAUUUGAACAAUAUGUACAGACACUUGAUGCAGAAGUUCAGCAGUGGAGGUCUGGAGAUAGUGUGCCUAAAGAAAAAUGGGUACCACCUUUAGAUACUGCUAAUCUUUCUAAAAUAAAAACACCAAGACCUGCAACUCCUUCUAGGCUGCAGGUAGAAUCUAGAUCGGAAGCUUCAACGUUAUUAGAUCGCUCAUCUACGCCAAUUGCAUUAGAAAAAGAUGAUCGUGAAGAGUUUUUAAAAAGAGAAAAUGAGCUUCAAGAUCAAAUUGCUGAAAAAGAGACUCUAAUUGCGACUGCAGAAAAAAAGCUAAAAGACAUAAAAGAGGAAUUAAGUUAUCUCAAAGAACGGGAUAUCAAAUCUAUUAGGGAGAAUGAAAAAUUGAU

Tested on: E. necator
Assay: Leaf disc assay, dry inoculum (settling tower), decrease in disease severity / hyphal growth (Example 2)
Details: decrease in disease severity (hyphal growth) relative to untreated control, value ± SE; for % decrease =/− SE TP1: time point 1 (untreated control hyphal growth ≥50%)

Molecule | % decrease =/− SE TP1 [%] | % decrease =/− SE TP2 (time point 2) [%]
B1 | 10 ± 4 | –
B2 | 31 ± 5 | 17 ± 6
B3 | 14 ± 4 | –
